Assay results taken from US11110182B2, “Multifunctional RNA nanoparticles and methods for treating cancer and therapeutic resistant cancer” (University of Cincinnati, priority 2016, dated 2021).

How the values were obtained:
[1] = test system: HER2-overexpressing BT474 cells; assay: pRNA nanoparticle cellular uptake assay (confocal, flow cytometry), BT474; format: cell-based, human; settings: for cellular uptake by flow cytometry: BT474, 3 h incubation at 37° C.; for binding and internalization into cells: BT474, AF647-conjugated, 10 μg/mL, confocal microscopy
Method: (§1) FIG. 2A) Confocal microscopy analyses of the internalization of AF647-labeled control and pRNA-HER2apt-siMED1 nanoparticles by BT474 cells. Scale bar: 10 μm. FIG. 2B) Flow cytometry assays of the cellular uptake of AF647-labeled control and pRNA-HER2apt-siMED1 nanoparticles by BT474 cells. FIG. 2C) IVIS Lumina live imaging of BT474 orthotopic xenograft mice 24 hrs after i.v. injection of indicated AF647-labeled pRNA nanoparticles (10 mg/Kg). FIG. 2D) Major organs and tumors of above mice were excised and imaged for AF647 fluorescence. FIG. 2E) Frozen tumor sections were examined for localization of AF647-labeled pRNA nanoparticles (red) using confocal microscopy. The blood vessels were stained with anti-CD31 primary antibody and Alexa488-conjugated secondary antibody (green). The nuclei were stained with DAPI (blue). Scale bar: 50 μm. FIG. 2F) The fluorescence intensity of AF647-labeled pRNA nanoparticles (red) in frozen tumor sections was quantified with Image-pro Plus software.
Cell culture. Human breast cancer luciferase-overexpressing BT474 and MDA-MB-231 cells were maintained in DMEM medium (Hyclone, Thermo Scientific) supplemented with 10% fetal bovine serum (FBS, Sigma) and 1% penicillin/streptomycin (Corning) at 37° C. in a humidified atmosphere with 5% CO2.^53 • Generation of pRNA nanoparticles. The two strands of pRNA were synthesized with the DNA templates, which were amplified with overlapping primers (Sigma) by PCR methods, using a T7 promoter-controlled in vitro RNA transcription system as previously described^33 (Table 1). All the CTP and UTP used for synthesis of the pRNA nanoparticles were 2′-fluoro modified, except the control unmodified pRNA nanoparticles used in the stability assays. Following an overnight transcription at 37° C., RNA strands were purified using RNA clean and concentrator kits (ZYMO research) and examined by 8 M urea denatured 8% PAGE gel. pRNA nanoparticles were assembled by mixing the equal molar amounts of p1 and p2 strands and gradually annealing from 90° C. to 20° C. in 1×RNA annealing buffer containing 50 mM Tris-HCl (pH 7.5), 50 mM NaCl and 1 mM EDTA on a PCR machine. […] The hydrodynamic diameter and Tm value of pRNA nanoparticles were determined using dynamic light scattering and TGGE assay, respectively, as previously described.^54 The AFM imaging of the pRNA nanoparticles was performed at the University of Nebraska Medical Center imaging facility as previously reported.^55 Briefly, the pRNA nanoparticles (5 μL) were deposited on APS modified mica ^56 for a total of 2 min of incubation time. […]

[2] = test system: BT474 orthotopic xenograft tumors; assay: In vivo targeting and biodistribution imaging of AF647-labeled nanoparticles; parameters: species or system mice; settings: for signals in liver and kidney, biodistribution: AF647 fluorescence of excised organs; for accumulation in the xenograft tumors, biodistribution of excised organs and tumors: AF647 fluorescence of excised tumors; for localization in frozen tumor sections (penetration to tumor cells): confocal microscopy, microvessels stained with anti-CD31
Method: as §1
Migration and metastasis assay. The 8-μm-pore-size polycarbonate membrane, which separates the two chambers of a 6.5-mm Transwell (Costar), was coated with or without 1:8 DMEM-diluted Matrigel (Corning). Transwell assay was performed as previously described.^57 Briefly, BT474 cells were treated with pRNAs alone or together with 4-hydroxy-tamoxifen (4-OHT) for 48 h and starved with serum-free DMEM containing 0.2% BSA overnight. On the next day, cells were collected and 2×10^5 cells were seeded to the upper chamber of Transwell. The lower chamber was filled with 600 μL DMEM medium containing 10% FBS. After incubation at 37° C. for 24 h, cells on the membranes were fixed and stained with 0.1% crystal violet in 20% ethanol solution. Cells at top side of membranes were removed completely, and cells at the bottom side were examined with an Olympus SZX12 microscope and counted. • Mammosphere culture and breast cancer stem cell analyses. BT474 cells were treated with pRNAs for 48 h. Then, cells were suspended in DMEM/F12 medium supplemented with 1×B27 (Thermo Fisher), 20 ng/mL bFGF and 20 ng/mL EGF (R&D), and added into 24-well ultralow attachment plates. After treatment with or without 1 μM 4-OHT for 7 days, mammosphere formation was recorded using an Axiovert S100 TV inverted microscope (Zeiss). Xenograft tumor tissues were cut into small pieces and digested with trypsin and collagenase at 37° C. for 1 h, and tumor cells were collected and rinsed with pre-cold PBS. All cells were stained with FITC-conjugated anti-CD44 antibody and PE-conjugated anti-CD24 antibody (BD Pharmingen) in the dark on ice for 30 min. After resuspension with 0.5 mL PBS buffer, CD44^+/CD24^−/low cell population was analyzed by flow cytometry. • Orthotopic xenograft breast tumor mouse model, in vivo imaging and anti-tumor therapy. Six-week-old female athymic nude mice were purchased from Charles River Laboratories, and all animal procedures were performed under IACUC-approved protocols at the University of Cincinnati. Athymic nude mice were orthotopically injected with 1×10^7 BT474-luc cells mixed with matrigel into the fat pads of the forth pair of mammary glands. When the tumor sizes reached 100-150 mm^3, the mice were randomly divided into four groups (4/group) and intravenously (i.v.) injected with pRNAs (4 mg/Kg) once a week for three weeks. For tamoxifen treatments, 0.5 mg tamoxifen (Sigma) dissolved in sesame oil was intraperitoneally (i.p.) injected into mice 5 days a week for three weeks. The tumor volume was monitored every 3 days, and tumor size was calculated using the formula: volume=0.5×(width)^2×(length). For in vivo pRNA nanoparticle targeting and tumor imaging, mice were i.v. injected with AF647-conjugated pRNA nanoparticles or i.p. injected with D-luciferin and imaged using the IVIS Lumina imaging system with Living Images 3.0 software (Caliper Life Sciences). […]

Row | Molecule | cellular uptake by flow cytometry [1] | binding and internalization into cells [1] | accumulation in the area of the xenograft tumor, live animal imaging ([2]; AF647-conjugated, 10 mg/Kg i.v., 24 hrs) | signals in liver and kidney, biodistribution [2] | accumulation in the xenograft tumors, biodistribution of excised organs and tumors [2] | localization in frozen tumor sections (penetration to tumor cells) [2]
1 | pRNA-HER2apt-siMED1: 3-WJ pRNA nanoparticle bearing a HER2-targeting RNA aptamer and two different MED1 siRNAs; strands p1 SEQ ID NO: 3, p2 SEQ ID NO: 4 (nucleic acid, 2'-F modification; third strand may lack entry; pRNA-HER2apt-siMED1, p1; pRNA-HER2apt-siMED1, p2) chain 1: GGACAGUGAAAGUGAGUCAAAGGAUCAAUCAUGGCCAAAGAUGUUACUUUGAGAGCCUU chain 2: GGCUCUCAAAGUAACAUCUAAGGCCAUGUGUAUGUGGGGGGAGGACGAUGCGGUCUGCUGUGCUUGAUAUGCCCCAGACGACUCGCCCCCCACAUACUUUGUUGAUCCAAUGACUCACUUUCACUGUCCUU | effectively taken up | can bind and be readily internalized | strongly accumulated | low levels of residual signals | predominant accumulation | very effectively penetrated to tumor cells
2 | pRNA-HER2apt^mut-siMED1: control pRNA nanoparticle with mutant HER2 aptamer; strands p1 SEQ ID NO: 5, p2 SEQ ID NO: 6 (nucleic acid, pRNA-HER2apt(mut)-siMED1, p1; pRNA-HER2apt(mut)-siMED1, p2) chain 1: GGACAGUGAAAGUGAGUCAAAGGAUCAAUCAUGGCCAAAGAUGUUACUUUGAGAGCCUU chain 2: GGCUCUCAAAGUAACAUCUAAGGCCAUGUGUAUGUGGGAUGAGGAGUAUGAAGAUACCUGUACUUGAUAUGCCCCAGACGACAUUCCCCCCACAUACUUUGUUGAUCCAAUGACUCACUUUCACUGUCCUU | notably decreased the uptake efficiency | dramatically impaired | – | low levels of residual signals | not | remained in the microvessels
